Results taken from patent US11278600B2, “Human alpha-galactosidase variants” (Codexis, Inc., priority 2014, dated 2022).

Tests used:
Assay type in all cases: biochemical
[1] = HTP-analysis of supernatants pretreated with base (MUGal hydrolysis); conditions: activity of the variant/activity of Rd3BB (SEQ ID NO: 13); challenge at pH 9.7
In short: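 GLA variants secreted from yeast INVSc1; culture supernatants pre-incubated with McIlvaine buffer pH 7.0–8.2 or 200 mM bicarbonate pH 9.1–9.7 at 37° C. for 1–18 h. Residual activity: MUGal (4 mM stock) hydrolysis at pH 4.3–4.8, 37° C., 30–180 min, carbonate quench; fluorescence Ex 355/Em 448 nm.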

[2] = HTP-analysis of supernatants pretreated with acid (MUGal hydrolysis); conditions: activity of the variant/activity of Rd3BB (SEQ ID NO: 13); challenge at pH 3.7
In short: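 Fluorescence of MUGal hydrolysis (Ex. 355 nm, Em. 448 nm) is read after sodium carbonate quench. The enzyme source is INVSc1 yeast culture supernatant, first exposed to pH 3.3-4.3 McIlvaine buffer at 37° C. for 1-3 h, then reacted at pH 4.8 for 30-180 minutes.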

[3] = HTP-analysis of yeast culture supernatants, no challenge (MUGal hydrolysis); conditions: activity of the variant/activity of Rd3BB (SEQ ID NO: 13)
In short: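 Activity read as 4-methylumbelliferyl α-D-galactopyranoside hydrolysis: fluorescence (355/448 nm) after sodium carbonate stop, following 30-180 min at 37° C with 2 mM MUGal stock at pH 4.6–4.8. Enzyme source is unchallenged culture supernatant of INVSc1 yeast expressing GLA variants, grown 66-84 h at 30° C.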

Molecule	Relative Activity of GLA Variants After Challenge at pH 9.7 [1]	Relative Activity of GLA Variants After Challenge at pH 3.7 [2]	Relative Activity of GLA Variants After No Challenge (NC) [3]
594 (protein, Synthetic Polypeptide sequence of Variant No. 594 of mature Human GLA) LDNGLARTPTMGWLHWERFMCNLDCQEEPDSCISEKLFMEMAERMVSEGWKDAGYEYLCIDDCWMAPQRDSEGRLQADPQRFPHGIRQLANHVHEKGLKLGIYADVGNKTCAGFPGSFGYYDIDAQTFADWGVDLLKFDGCYCDSLENLADGYKHMSLALNRTGRSIVYSCEWPLYMWPFQKPNYTEIRQYCNHWRNFADIDDSWASIKSILDWTSRNQERIVDVAGPGGWNDPDMLVIGNFGLSWDQQVTQMALWAIMAAPLFMSNDLRHISPQAKALLQDKDVIAINQDPLGKQGYQLRKGDNFEVWERPLSGDAWAVAIINRQEIGGPRSYTIPVASLGKGVACNPACFITQLLPVKRQLGFYNWTSRLKSHINPTGTVLLQLENTMQMSLKDLL	++ (++ = >5 to 10 relative activity over Rd3BB (SEQ ID NO: 13))	+ (+ = 1.5 to 5 relative activity over Rd3BB (SEQ ID NO: 13))	+ (+ = 1.5 to 5 relative activity over Rd3BB (SEQ ID NO: 13))
600 (protein, Synthetic Polypeptide sequence of Variant No. 600 of mature Human GLA) LDNGLARTPTMGWLHWERFMCNLDCQEEPDSCISEKLFMEMAERMVSEGWKDAGYEYLCIDDCWMAPQRDSEGRLQADPQRFPHGIRQLANHVHSKGLKLGIYADVGNKTCAGFPGSFGSYDIDAQTFADWGVDLLKFDGCYCDSLENLADGYKHMSLALNRTGRSIVYSCEWPLYMWPFQKPNYTEIRQYCNHWRNFADIDDSWASIKSILDWTSRNQERIVDVAGPGGWNDPDMLVIGNFGLSWDQQVTQMALWAIMAAPLFMSNDLRHISPQAKALLQDKDVIAINQDPLGKQGYQLRKGDNFEVWERPLSGDAWAVAIINRQEIGGPRSYTIPVASFGKGVACNPACFITQLLPVKRQLGFYNWTSRLKSHINPTGTVLLQLENTMQMSLKDLL	+ (+ = 1.5 to 5 relative activity over Rd3BB (SEQ ID NO: 13))	+++ (+++ = >10 relative activity over Rd3BB (SEQ ID NO: 13))	+ (+ = 1.5 to 5 relative activity over Rd3BB (SEQ ID NO: 13))
596 (protein, Synthetic Polypeptide sequence of Variant No. 596 of mature Human GLA) LDNGLARTPTMGWLHWERFMCNLDCQEEPDSCISEKLFMEMAERMVSEGWKDAGYEYLCIDDCWMAPQRDSEGRLQADPQRFPHGIRQLANHVHSKGLKLGIYADVGNKTCAGFPGSFGYYDIDAQTFADWGVDLLKFDGCYCDSLENLADGYKHMSLALNRTGRSIVYSCEWPLYMWPFQKPNYGEIRQYCNHWRNFADIDDSWASIKSILDWTSRNQERIVDVAGPGGWNDPDMLVIGNFGLSWDQQVTQMALWAIMAAPLFMSNDLRHISPQAKALLQDKDVIAINQDPLGKQGYQLRKGDNFEVWERPLSGDAWAVAIINRQEIGGPRSYTIPVASLGKGVACNPACFITQLLPVKRQLGFYNWTSRLKSHINPTGTVLLQLENTMQMSLKDLL	++ (++ = >5 to 10 relative activity over Rd3BB (SEQ ID NO: 13))	++ (++ = >5 to 10 relative activity over Rd3BB (SEQ ID NO: 13))	+ (+ = 1.5 to 5 relative activity over Rd3BB (SEQ ID NO: 13))
595 (protein, Synthetic Polypeptide sequence of Variant No. 595 of mature Human GLA) LDNGLARTPTMGWLHWERFMCNLDCQEEPDSCISEKLFMEMAERMVSEGWKDAGYEYLCIDDCWMAPQRDSEGRLQADPQRFPHGIRQLANHVHSKGLKLGIYADVGNKTCAGFPGSFGYYDIDAQTFADWGVDLLKFDGCYCDSLENLADGYKHMSLALNRTGRSIVYSCEWPLYMWPFQKPNYAEIRQYCNHWRNFADIDDSWASIKSILDWTSRNQERIVDVAGPGGWNDPDMLVIGNFGLSWDQQVTQMALWAIMAAPLFMSNDLRHISPQAKALLQDKDVIAINQDPLGKQGYQLRKGDNFEVWERPLSGDAWAVAIINRQEIGGPRSYTIPVASLGKGVACNPACFITQLLPVKRQLGFYNWTSRLKSHINPTGTVLLQLENTMQMSLKDLL	+ (+ = 1.5 to 5 relative activity over Rd3BB (SEQ ID NO: 13))	+ (+ = 1.5 to 5 relative activity over Rd3BB (SEQ ID NO: 13))	+ (+ = 1.5 to 5 relative activity over Rd3BB (SEQ ID NO: 13))
598 (protein, Synthetic Polypeptide sequence of Variant No. 598 of mature Human GLA) LDNGLARTPTMGWLHWERFMCNLDCQEEPDSCISEKLFMEMAERMVSEGWKDAGYEYLCIDDCWMAPQRDSEGRLQADPQRFPHGIRQLANHVHSKGLKLGIYADVGNKTCAGFPGSFGHYDIDAQTFADWGVDLLKFDGCYCDSLENLADGYKHMSLALNRTGRSIVYSCEWPLYMWPFQKPNYTEIRQYCNHWRNFADIDDSWASIKSILDWTSRNQERIVDVAGPGGWNDPDMLVIGNFGLSWDQQVTQMALWAIMAAPLFMSNDLRHISPQAKALLQDKDVIAINQDPLGKQGYQLRKGDNFEVWERPLSGDAWAVAIINRQEIGGPRSYTIPVASLGKGVACNPACFITQLLPVKRQLGFYNWTSRLKSHINPTGTVLLQLENTMQMSLKDLL	++ (++ = >5 to 10 relative activity over Rd3BB (SEQ ID NO: 13))	+ (+ = 1.5 to 5 relative activity over Rd3BB (SEQ ID NO: 13))	+ (+ = 1.5 to 5 relative activity over Rd3BB (SEQ ID NO: 13))
599 (protein, Synthetic Polypeptide sequence of Variant No. 599 of mature Human GLA) LDNGLARTPTMGWLHWERFMCNLDCQEEPDSCISEKLFMEMAERMVSEGWKDAGYEYLCIDDCWMAPQRDSEGRLQADPQRFPHGIRQLANHVHSKGLKLGIYADVGNKTCAGFPGSFGSYDIDAQTFADWGVDLLKFDGCYCDSLENLADGYKHMSLALNRTGRSIVYSCEWPLYMWPFQKPNYTEIRQYCNHWRNFADIDDSWASIKSILDWTSRNQERIVDVAGPGGWNDPDMLVIGNFGLSWDQQVTQMALWAIMAAPLFMSNDLRHISPQAKALLQDKDVIAINQDPLGKQGYQLRKGDNFEVWERPLSGDAWAVAIINRQEIGGPRSYTIPVASLGKGVACNPACFITQLLPVKRQLGFYNWTSRLKSHINPTGTVLLQLENTMQMSLKDLL	++ (++ = >5 to 10 relative activity over Rd3BB (SEQ ID NO: 13))	+ (+ = 1.5 to 5 relative activity over Rd3BB (SEQ ID NO: 13))	+ (+ = 1.5 to 5 relative activity over Rd3BB (SEQ ID NO: 13))
597 (protein, Synthetic Polypeptide sequence of Variant No. 597 of mature Human GLA) LDNGLARTPTMGWLHWERFMCNLDCQEEPDSCISEKLFMEMAERMVSEGWKDAGYEYLCIDDCWMAPQRDSEGRLQADPQRFPHGIRQLANHVHSKGLKLGIYADVGNKTCAGFPGSFGYYDIDAQTFADWGVDLLKFDGCYCDSLENLADGYKHMSLALNRTGRSIVYSCEWPLYMWPFQKPNYVEIRQYCNHWRNFADIDDSWASIKSILDWTSRNQERIVDVAGPGGWNDPDMLVIGNFGLSWDQQVTQMALWAIMAAPLFMSNDLRHISPQAKALLQDKDVIAINQDPLGKQGYQLRKGDNFEVWERPLSGDAWAVAIINRQEIGGPRSYTIPVASLGKGVACNPACFITQLLPVKRQLGFYNWTSRLKSHINPTGTVLLQLENTMQMSLKDLL	+ (+ = 1.5 to 5 relative activity over Rd3BB (SEQ ID NO: 13))	− (− = <1.5 relative activity to Rd3BB (SEQ ID NO: 13))	+ (+ = 1.5 to 5 relative activity over Rd3BB (SEQ ID NO: 13))
601 (protein, Synthetic Polypeptide sequence of Variant No. 601 of mature Human GLA) LDNGLARTPTMGWLHWERFMCNLDCQEEPDSCISEKLFCEMAERMVSEGWKDAGYEYLCIDDCWMAPQRDSEGRLQADPQRFPHGIRQLANHVHSKGLKLGIYADVGNKTCAGFPGSFGYYDIDAQTFADWGVDLLKFDGCYCDSLENLADGYKHMSLALNRTGRSIVYSCEWPLYMWPFQKPNYTEIRQYCNHWRNFADIDDSWASIKSILDWTSRNQERIVDVAGPGGWNDPDMLVIGNFGLSWDQQVTQMALWAIMAAPLFMSNDLRHISPQAKALLQDKDVIAINQDPLGKQGYQLRKGDNFEVWERPLSGDAWAVAIINRQEIGGPRSYTIPVASLGKGVACNPACFITQLLPVKRQLGFYNWTSRLKSHINPTGTVLLQLENTMQMSLKDLL	+ (+ = 1.5 to 5 relative activity over Rd3BB (SEQ ID NO: 13))	+ (+ = 1.5 to 5 relative activity over Rd3BB (SEQ ID NO: 13))	− (− = <1.5 relative activity to Rd3BB (SEQ ID NO: 13))
